{"source": "paper PMC9565801", "about": "(Science Advances, 2022)", "proteins": {"B1": {"name": "ketosteroid isomerase (KSI) Y32F/Y57F from Pseudomonas putida (enzyme)", "chain": "MNLPTAQEVQGLMARYIELVDVGDIEAIVQMFADDATVEDPFGQPPIHGREQIAAFFRQGLGGGKVRACLTGPVRASHNGCGAMPFRVEMVWNGQPCALDVIDVMRFDEHGRIQTMQAYWSEVNLSVREPQ"}, "B2": {"name": "ketosteroid isomerase (KSI) Y57F from Pseudomonas putida (enzyme)", "chain": "B1 chain with F32Y"}}, "molecular_target": "the molecule itself", "assay": "crystal structure", "note": "Positions count from the first letter of the chain named. Names and notes keep the numbering of the source.", "data": [{"protein": "B1", "values": [{"measurement": "stoichiometry N", "result": 2}]}, {"protein": "B2", "values": [{"measurement": "stoichiometry N", "result": 2}]}]}
